The DeepSol protein solubility set

Experiment: soluble on expression in E. coli; label from the status in PepcDB or PDB records

Sequence | soluble on expression in E. coli
MGKSSNIVFDRIKEERQMLSFFKIFQRADLSSDCMRALPYSFISKVSEKDFSYKMVIRAQWGKTWDVEVSKNPTYYYIETRGWDLFVSDNALGQNEFITFTHRGNMVFHVNIYEQNGLEMRKPRKFQTMGPSSGIKKEEGENSLIDVKKEEESDESPGRAEFLVRKKKTEDSKSSKKKMTRNKVKKKSKSKSKQVLDGVPEFKITIRKSYLKFLAIPKHFVDDHIPNKSKIFTIRHPNGGSWKVLCLVREIRTIFSGGYSKLAREFPLMVGDKCTFKLIKPFEFVLLTSKKNREKMDQCMID | soluble
MSNQSKLNSAAYDQLNKDADRILHLIKVQMDNLTLPSCPLYEEVLDTQMFGLQKEVDFAVQLGLVDKEDGKQLMLRLEKELSKLHEAFTNV | not soluble
MGSDKIHHHHHHMATENPPIYMVGGSKGGVGKSFVTLALVDYLRRMEVNVVLVETDTSNPDVMKAVHDEIECGSCDLDDVSGWIDFVNFCDLHPDATVVVNTAARSQAGVAQYGGTLASTLDELARRLVVLWVINRQRDSLELLLRFGATFPNAITHVVRNGYFGSPDKFTLYRDSQLRNAVEAQGQSLDFPDLADRVADELRSQRLSVSKAAEMMHMGERAELLRWRAVCGTMFARVTPHA | not soluble
MGSDKIHHHHHHMKVSSKPSLTWEILTSRADRPRQEVFPFNTGRCEYFYSARYALAAALDALKLSPQQSILMPSYNCWVEVEPAVRSGAKIDWYRVKTDFSIDEDDLLARIRPETAAIFVIHYLGFPQRLENIHRICTERGIVLIEDCAHALLSNDGDVPLGLTGDMAIFSIRKTVPIPDGGCLLINNPAFSVNRPRRVRPNLFATYFVVSEMLARGSTTEPKRVNQMAYSCNFAFARLARMGLRGIHKIFQDHGDYLVYPSGNHFNEQVKHWMMSDVSSAILRGTEFQRIKERRRANFLHLLDKLIMNDRITLPILSLPEGVSPLFFPVIVQDRDRVYRQLKDQGLSGHDWWGDFHPAVPWDKYPDAVYLKTNVFGFPVHQDLSRESLGIMLAEFSQCL | not soluble
MSLTVNNEISKAFSKHADDYERVAKVQKEIGSRLFERLQYLKIAPRRILDLGCGPGFFSKELALLYPKAQIVGMDLSFAMLEQARKKQGWRRKWPLVSADMQKMPFATGAFDLVFANQVIHWSSSLGMVFRELNRVMNVNGCLMFTTLGPDTFKELQTAWSAANQYAHVNEFVDMHDIGDCLIAEHFMDPVIDMELLSIHYETLPQLLLALKTQGVRNINPKRNHGLTGKSAWKQFEAQYATMRTTTGKYPLTYEVVYGQAWKGAQRKMEQGEGHHHHHH | not soluble
MSDYLSVSTLTKYLKLKFDKDPYLERVYLTGQVSNFRRRPNHQYFSLKDDKSVIQATMWSGHFKKLGFELEEGMKVNVVGRVQLYEPSGSYSIIVEKAEPDGIGALAIQFEQLKKKLSQAGYFDDRHKQLIPQFVRKIGVVTSPSGAVIRDIITTVSRRFPGVEILLFPTKVQGEGAAQEIAQTIALANEKKDLDLLIVGRGGGSIEDLWAFNEECVVEAIFESRLPVISSVGHETDTTLADFVADRRAATPTAAAELATPVTKIDILSWITERENRMYQSSLRLIRTKEERLQKSKQSVIFRQPERLYDGFLQKLDNLNQQLTYSMRDKLQTVRQKQGLLHQKLQGIDLKQRIHIYQERVVQSRRLLSSTMTSQYDSKLARFEKAQDALISLDSSRIVARGYAIIEKNHTLVSTTNGINEGDHLQVKMQDGLLEVEVKDVRQENI | not soluble
MGSDKIHHHHHHMECHIDLHNTVIQRRVPRDGRAAKHIGIAVFNGFSLLDTVSIVEAFETANRFAEASRHDAPRYVVRLLSSAGGRIASSSSVFVWTDSVEARGHAHDFHALFIAGGTGVHDAARDGRLLAWLRRTHLRSENVLSIAEGQFLLEAAGFASSAGIGSARGLVPRHYFRRETDPATQREVSSPLESALNLIEADLGTEITCKAAASLAPRASTQFTSVLNRNASGSVSDKIRASAQWLEANGHQPISIDRAAGIAAMSERNFLRRFKAEIGVTPSGYLLYVRLDMSCRLLVETALPVDKIARRCGFGDGGQLARLFRKHMGTTPSEYRNSHRQPHDR | not soluble
MGSDKIHHHHHHMPQDRPTAAQLWSGEISFFSLDTDLIQSAGYSFDAGVLNQLPQVFPKTMQLLLTEVTAREIVSHLMKSVTQAMGEFRKGSDTLKRSVGIDMDQIDKLFEALSVVSSAEAVFRERVDSYAERCRGEVLPIGGGDMMPRIFERYFAGLPPFGARKDKKAEFPDAMSLLLLEDYARDHGTRGVVASRDEGWSEFAGKSEYLYCVKSLDALIALFEATGEHAKTLADRIASAVEDENSFVRAALLDGFRTHIHESSWNVENVYSGVVPRVEAATCEADVISHVLQSDRTKVWNLEEDKSVWVVELTASLTVEVQIDVTFYVWDAIDREEMELDTQTVRRKTNIEVKAFLTVGGAETEVDPAKWDVGVEIAPGQYEIDVGEVEPEYSGD | not soluble
MGSDKIHHHHHHMINSYLVQQIKGNFLYKPTLEQEKAVKFLADFLFSRQSDSVFLLKGYAGTGKTSLIGALVKTLDQLQQKCVLLAPTGRAAKVFSHYAQHPAYTIHKKIYRQRNFSNDLDNFSLDDNLHQHTLFIVDEASMIANDGLAGAVFGTGRLLDDLIQYVYAGTGCRLMLIGDTAQLPPVGEEESPALSADKLRGYGMEVYEAQLTEVVRQMHDSGILWNATELRRYISEENFLTLPSVRVEGFPDIRMVSGSELIEVINDCYGQAGMDETIVVCRSNKRANIYNKGIRNTILFREDELNSGDLLMVAKNNYFWTEGCKEIDFIANGDIAVVRRVRRVREAYGFRFADVVLAFPDYDGMELEVKLLLDTLHTETPALPKELNDKLFYSVLEDYADITVKRERMKKMKADPHYNALQVKYAYAVTCHKAQGGQWKRVFLDQGYMTEDMLTPDYFRWLYTAFTRATEILYLVNWPKEQTE | not soluble
MRFIPLIVARPEVQMAIDEAILIARSEGRVPDTVRLYVFKPSSVTIGRFQSVRYDVNLEKAKELGIPVVRRITGGGSVFHDEYGEITYSVVISEDYHPMLKNIQDSYRFLAGPLVDALKDLGIEAEFSGLNDIVVRGKKISGSAQTRRRGIILQHGTLMYATRLEILGSVLKVSKEKLKDKGVKSIFERVTTLEREGIKVGRNEMYEVLRNSFFRAFPLDEGELTEYELELVEKLIEERYGNDKWNFQKLEHHHHHH | soluble
MGSDKIHHHHHHMIRVIDCTLREGCQARQCSFDSAQSVQLAREIAALGVDMIECGHPRISADERERVRAVVAAVSTPVLAHARARREDIDAVLETGAQWVGLFASINAISLETKFKGMNREEVLELFHDAIRYARERGLRVRATVEDAARTSVSDLVSMIATARDAGADRICFADSVGILLPDETFDVLSLLRHEFPDVVFEYHVHNDRGLALGNTLAAIQAGVQWHSASCNGIGERAGITDTFQLLTLLHTKFAADRFNLKNVLAVSELVEAHSRIKRSPMHPVVGENAFVHVARLHQLAMQENQDAYSAFDPELINGRVSLQRYTPMHRQSLFLTPFEKSASELKYHRHGPGKRFVMLDRRLLDGSPFYFIARQFHDVGDGGPGHVDSHVHNCDSVFLFLGSDEDYRGLEVEVLLGGQLRRLQSPASVFIPAGVEHSYRYLGGSGTYINFVHKGDYHESLLEITQ | not soluble
MKRVFCPKCDGAITISRETLSQASPNGSLSLLCPHCCHQLRIRLVSKSDNSHNHKTEQEEQELAQELDRSRGYIVVLENIFGYRQEFALREGDNGIGRRNKDSVVDIAVLTGDPSMGRHHCILRVTPKKDGSFLYSIADDDSLVGTFVGGRLLDKKEWCRLNDGDVITMGATSAILYTSDHKDTESEEKN | not soluble
MKVAFVIRKDCKRCATIAKSIIELIPPDWEKIYDTEAAKFLGGVGKDITEISADIIIAIGGDGTVLRILQNAKGPVLGINMGGLGFLTEIEIDEVGSSTYKLIRGEYKINEAMKLKVYINGRRLEDCTNEAVVHTDRIARIRQFKIYVDGHFLTTIKSDGVIVATPTGSSSYSSSAGGPLLLPTVRGMVISYLAPYSSRIKPVVVPSESTVEIKIAGNDQDSLLILDGQKEYKIKSGDTVSISMSEEKARFVSFRESIYDRLRDKVIKHVVN | soluble
TQKSLSNFLLSMQEAFSLGEEDRLLAVTTVAFDISALELYLPLISGAQIVIAKKETIREPQALAQMIENFDINIMQATPTLWHALVTSEPEKLRGLRVLVGGEALPSGLLQELQDLHCSVTNLYGPTETTIWSAAAFLEEGLKGVPPIGKP | not soluble
MGSDKIHHHHHHMFERSDETLIAQALKGKKSAWLTLVKRYEKNLYNYALRMVNNPADAMDLMQDIFIALFRNLSKFRGECPFKNWLFKIAHYRCLEYYRRKRPMQSLDDVPEQEDEESVCLEKNLQIQQQSSALLEAMQHLPVKQKLVVELKFFQQCTFEDISQQLGISTNTAKSQLYSALDKLKLHLVDDQIIKVGVEYV | not soluble
MGSDKIHHHHHHMSASSNRTIPVFQLYGETHQWPTPDLLHCESIAERSRLHDWHIRPHRHADLVHVLHIAHGDVNLTFEEGAQRLTGPLLIVVPAMTVHAFRFSRDVDGHIVTLAMPLARHIADTLHPQGQILARAAFYPLADQPERAPIATLVDQLDAEYRHPADGRDALLEALLNSLLVLASRRATRRQARPASRQHERGEAHLARFQQLIEAHYHQQPSIPEFAERLGISSAHLSAVCQRLAGRSAQQLLHERVLLEAKRHLTYTNMTIGQVAERLGFKEPAYFTRFFKRHVACSPKEFRQRQA | not soluble
SLKVYSKDEIVEQAKELAKMISETEEVDFFKKAEAQIHKNENVKRAIDEIKALQKQAVNLQHYGKWEALKKVEAEIDALQDKLDSIPVVQEFKSSQTYVNDLLQLVASTISNNVTDEILISTNGDVLKGETGAAVESKKGNCGC | soluble
MAHIIRRVSIKDVENFISMLAKIYDESPYMFYTPGEYDPSVTSASKQLEEYITSPHKVIFVAESDEQLVGFAFVNTTPFQRIKHVAKIDLGVKKLYQHRGIGQALLDAIMAWCLNNQIHRIEANVPLNNQPALELFKSADFQIEGVLKDKLFIDGKYYDDYMMAKILN | soluble
MGSDKIHHHHHHMSRYVIRTYKVPVPVELYPLCSELNRIAARIYNKTMSLVKKIKNKKGFWLSPNTAQKYILRWSSAIDIHTHSKQAMVQLYFQALNSYFVAVKTNPHAKPPYKRKNFLPFIWKNQAIKLLPDGKVKLSMGRNREPFVIPTTLPAGTTIRQAKLVYEAGRYYLHLAIEVKSEHKRGQSQKVMSVDVGILRPITCFDGSEVISYHGGVLNSILRYRNKRLADIQRALSRCQKGSRRYKKLSRAKRRVLYKTRNQINDVLHKITSHFIGLCVQKNIGTIVVGDITNIRERTNGNDNFNQKLHQWAFRKLMSQIEYKAQIFGIEVVRISEAHTSKTCPVCGTQNRPSGRNYKCAGCGFEYHRDGVGAINIWKRYLGTKSQVVAGLAPARGVRFNPHLCGHGAISAPWKAA | not soluble
GKPDGKIDYADAVFKGCSDPGYLLGLNNTFRYKNFDLNVYFYGQLDLLKSGSYKDYWIVGSGTMTGVNNLYRGYNMPTSAKEVWSHDNTSGKMPGYFQYMSNYGYGDYFLEKSWFIRCRNITLGYTLPVKSAKKLVSNVRIYADVNNLFTITPYDGLDVETDDSYWAYPNVRSFSIGLDITF | not soluble
